Test results as given in the Human Domainome abundance scans (Beltran et al. 2025).

B1: Receptor-interacting serine/threonine-protein kinase 2, residues 438 to 518; numbered along this chain, O43353 (parent)
chain: QWIQSKREDIVNQMTEACLNQSLDALLSRDLIMKEDYELVSTKPTRTSKVRQLLDTTDIQGEEFAKVIVQKLKDNKQMGLQ

Variants of: B1
Assay: abundance fitness (aPCA) (normalised: wild type 0, dead -1); higher = more abundant; growth selection in yeast, the domain comes from the species named
Conditions: Homo sapiens

Abundance fitness, by site and new letter:
R46: W -0.796
Q52: P -0.551; E -0.512; V -0.603; F -0.403; D -0.526; H -0.493; A 0.082; C -0.203; K -0.442; W -0.011; L -0.57; M -0.42; G -0.556; Y -0.77; S -0.196
L53: F -0.785; R -0.643; M -0.517; E -0.536; Q -0.567; G -0.433; V -0.56; N -0.845; P -0.423; W -0.595; S -0.679; H -0.666; Y -0.821; C -0.433; T -0.417; K -0.366; D -0.689; I -0.544; A -0.396
S48: V -0.534; R -0.466; G -0.11; P -0.651; Q 0.123; A 0.072; L -0.04; D 0.065; C -0.293; E 0.542; N -0.892; W -0.819; F -0.527; I -0.923; M -0.142; H -0.47; T -0.224; Y -0.644
E62: V -0.853; P -0.493; Y -0.913; W -1.32; A -0.555; L -0.808; K -0.798; I -0.912; G -0.537; D -0.648; F -0.741; M -0.545; T -0.629; H -0.678; S -0.627; Q -0.943
L54: P -0.553; H -0.542; W -1.08; M -0.622; K -0.408; Y -0.814; V -0.777; C -0.45; Q -0.646; D -0.452; S -0.649; R -0.475; A -0.345; T -0.925; F -0.936; E -0.3; G -0.519
G61: L -0.531; T -0.085; Y -0.279; V -0.253; R -0.155; E -0.125; I -0.935; C -0.083; K 0.024; D -0.022; A -0.378; Q -0.243; N -0.055; P -0.596; F -0.604; M -0.947
K49: Y -0.625; Q -0.786; M -0.137; S -0.58; V -0.784; D -0.389; I -0.564; P -0.625; A -0.586; W -0.722; C -0.81; T -0.761; E -0.576; H -0.628; R -0.283
V50: E -0.538; N -0.737; W -0.903; T -0.505; H -0.696; L -0.817; P -0.53; R -0.802; G -0.679; D -0.493; Y -0.761; A -0.842; Q -0.612; I -0.524; S -0.389
T57: A 0.045; W -0.738; E -0.082; N -0.684; V 0.046; Q 0.01; S 0.128; F -0.392; M 0.108; D -0.28; P -0.04; I 0.044; C 0.125; G -0.004; L -0.002; H -0.268; Y -0.658
D55: T -0.313; Y -0.445; G -0.51; N -0.347; Q -0.277; I -0.168; K -0.469; H -0.665; C -0.122; W -0.475; M -0.03; P -0.676; L -0.132; S -0.153; V -0.27; E -0.015; R -0.162
D58: P 0.172; M -0.033; A 0.021; W -0.081; R -0.154; N -0.141; T -0.015; V 0.041; L -0.047; Y -0.259; F 0.001; H 0.026; I -0.007; E 0.107; C 0.035; Q 0.041
A65: L -0.949; C -0.624; P -0.554; K -0.708; F -1.12; V -0.933; D -0.569; S -0.457; G -0.6; R -0.649; N -0.389; H -0.44; Q -0.743; T -0.85; E -0.456; Y -0.691
V67: A -0.674; M -0.674; I 0.164; F -0.945; H -0.396; E -0.294; D -0.453; C -0.33; N -0.651; G -0.639; L -0.51; P -0.562
T47: C -0.254; A 0.121; Y -0.57; K -0.031; H 0.111; R 0.049; E 0.201; Q -0.145; N -0.286; P -0.228; S -0.061; F -0.493; W -0.333; M -0.431; L -0.373; D -0.152; V -0.153; G -0.185
T56: I 0.19; L 0.175; V 0.108; S -0.273; F 0.037; A -0.161; H -0.206; N -0.572; D -0.849; P -0.612; Q -0.024; G -0.458; Y 0.046; R -0.533; C -0.105; E -0.332; W 0.125
E63: Y -0.839; I -0.538; V -0.592; N -0.646; R -0.413; C -0.527; G -0.475; P -0.432; D -0.3; T -0.362; L -0.684; K -0.441; H -0.734; F -0.972; Q -0.485
R51: V -0.273; I -0.235; K -0.071; Q -0.052; W -0.802; T -0.255; A -0.145; L -0.254; D -0.517; E -0.273; M -0.354; G -0.407; H -0.518; S -0.194; C -0.307; N -0.207; P -0.501
I59: K 0.17; C -0.029; Y -0.342; V -0.171; L 0.231; S -0.29; G 0.143
K66: D -0.401; V -0.702; Q -0.135; P -0.471; N -0.58; M -0.192; T -0.187; R -0.166; E 0.096; G -0.182; Y -0.874; H -0.459; I -0.757; A -0.172; L -0.555; F -1.05
F64: D -0.17; S -0.212; V -0.236; Y -0.448; P -0.248; Q -0.156; R -0.475; M -0.047; W -0.384; E -0.123; A 0.131; L -0.295; K -0.566; I -0.269; G -0.257; T -0.142; C 0.112
Q60: C -0.054; P -0.283; L -0.321; R -0.057; Y -0.008; N -0.353; M -0.188; G -0.014; T -0.412; W -0.745; I -0.302; K -0.361; E -0.021; H -0.199; V -0.267; F -0.378; A -0.08
